Results: paper PMC10249358 (2023)
No end group written: not given here. *: point of attachment. FITC = O=C1OC2(c3ccc(O)cc3Oc3cc(O)ccc32)c2ccc(NC(=S)*)cc21

target: T1, moesin FERM domain (UniProt P26038 2-295); test: FP

Binder | Kd
LEFADFYDFRSSYPDH [ZNF622(341–356) peptide, unlabeled] | 1400 nM

Target: T2, radixin FERM domain (as used in FP) (human, UniProt P35241 5-295)
T2 chain: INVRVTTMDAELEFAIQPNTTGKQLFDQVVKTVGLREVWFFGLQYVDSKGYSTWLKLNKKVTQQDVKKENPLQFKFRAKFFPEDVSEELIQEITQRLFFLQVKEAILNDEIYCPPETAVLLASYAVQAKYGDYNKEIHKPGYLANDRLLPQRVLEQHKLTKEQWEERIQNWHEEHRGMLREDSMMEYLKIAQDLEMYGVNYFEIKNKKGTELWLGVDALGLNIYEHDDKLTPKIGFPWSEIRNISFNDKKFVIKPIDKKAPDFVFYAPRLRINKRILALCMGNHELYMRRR
Test: FP

Binder | Kd
FYDLWASDNPLDRPLV (also: FITC label, position not given here) [FITC-NOP53(192–207) peptide] | 3500 nM
{FITC}-LEFADFYDFRSSYPDH [FITC-ZNF622(341–356) peptide] | 2500 nM
SYSVQTMETVPYQPFP (also: FITC label, position not given here) [FITC-TBX4(428–443) peptide] | 4600 nM
{FITC}-WSKKNELFSNL [FITC-EBP50(348–358) peptide] | 3200 nM
{FITC}-YYSVNTFKEHHSTPTI [FITC-KIRREL3(637–652) peptide] | 1400 nM
{FITC}-THHKALQEIRNSLLPF [FITC-LATS1(73–88) peptide] | 1700 nM

target: T1, moesin FERM domain; test: FP; remark: another data set of the same source

Binder | Kd
FYDLWASDNPLDRPLV (also: FITC label, position not given here) [FITC-NOP53(192–207) peptide] | 710 nM
{FITC}-LEFADFYDFRSSYPDH [FITC-ZNF622(341–356) peptide] | 1000 nM
SYSVQTMETVPYQPFP (also: FITC label, position not given here) [FITC-TBX4(428–443) peptide] | 750 nM
{FITC}-WSKKNELFSNL [FITC-EBP50(348–358) peptide] | 3000 nM
{FITC}-YYSVNTFKEHHSTPTI [FITC-KIRREL3(637–652) peptide] | 80 nM
{FITC}-THHKALQEIRNSLLPF [FITC-LATS1(73–88) peptide] | 1000 nM

target: ezrin FERM domain (as used in FP) (UniProt P15311 2-296); test: FP
Sequence (P15311 2-296): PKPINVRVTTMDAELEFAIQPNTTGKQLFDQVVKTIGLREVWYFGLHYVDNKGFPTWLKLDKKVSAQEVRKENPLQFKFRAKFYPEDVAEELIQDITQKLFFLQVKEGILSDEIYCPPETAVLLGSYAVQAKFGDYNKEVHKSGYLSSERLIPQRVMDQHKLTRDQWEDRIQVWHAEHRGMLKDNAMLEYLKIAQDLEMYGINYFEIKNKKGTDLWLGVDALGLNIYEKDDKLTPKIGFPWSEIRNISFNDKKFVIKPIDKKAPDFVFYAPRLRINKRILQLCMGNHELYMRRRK

Binder | Kd
FYDLWASDNPLDRPLV (also: FITC label, position not given here) [FITC-NOP53(192–207) peptide] | 2400 nM
{FITC}-LEFADFYDFRSSYPDH [FITC-ZNF622(341–356) peptide] | 1600 nM
SYSVQTMETVPYQPFP (also: FITC label, position not given here) [FITC-TBX4(428–443) peptide] | 4500 nM
{FITC}-WSKKNELFSNL [FITC-EBP50(348–358) peptide] | 3200 nM
{FITC}-YYSVNTFKEHHSTPTI [FITC-KIRREL3(637–652) peptide] | 1400 nM
{FITC}-THHKALQEIRNSLLPF [FITC-LATS1(73–88) peptide] | 1200 nM

Target: T3, merlin FERM domain (human, UniProt P35240 22-312)
T3 chain: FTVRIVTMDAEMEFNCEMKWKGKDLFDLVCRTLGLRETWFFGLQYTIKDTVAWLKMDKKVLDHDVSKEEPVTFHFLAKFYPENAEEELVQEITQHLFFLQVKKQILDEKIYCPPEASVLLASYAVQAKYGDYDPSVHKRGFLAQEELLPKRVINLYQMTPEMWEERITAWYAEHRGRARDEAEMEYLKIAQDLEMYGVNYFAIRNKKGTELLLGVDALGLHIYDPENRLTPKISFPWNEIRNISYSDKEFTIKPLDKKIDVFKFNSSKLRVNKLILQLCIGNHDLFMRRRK
Test: FP

Binder | Kd
FYDLWASDNPLDRPLV (also: FITC label, position not given here) [FITC-NOP53(192–207) peptide] | 17000 nM
{FITC}-LEFADFYDFRSSYPDH [FITC-ZNF622(341–356) peptide] | 4100 nM
{FITC}-WSKKNELFSNL [FITC-EBP50(348–358) peptide] | 1800 nM
{FITC}-THHKALQEIRNSLLPF [FITC-LATS1(73–88) peptide] | 8500 nM

target: T1, moesin FERM domain; test: FP; remark: another data set of the same source

Binder | Kd
TNGYYSVNTFKEHHSTPTI [KIRREL3(634–652) peptide, unlabeled, N-terminally extended] | 120 nM
PYTSYSVQTMETVPYQPFP [TBX4 peptide extended N-terminally with PYT] | 3200 nM
SYSVQTMETVPYQPFP [TBX4(428–443) peptide, unlabeled] | 1000 nM
YYSVNTFKEHHSTPTI [KIRREL3(637–652) peptide, unlabeled] | 90 nM
